Data: paper PMC2367712

Molecular target: Lsr2 P103A (Mycobacterium tuberculosis, UniProt P9WIP7 1-112, P101A)
Test: EMSA

B1: C42 (dsDNA)
DNA 1: AAAAATCTCTAAAAAATCTCTAAAAATCTCTAAAAAATCTCT
DNA 2: AGAGATTTTTTAGAGATTTTTAGAGATTTTTTAGAGATTTTT
Does B1 bind?
Result: binds
